Laboratory results from article PMC8643700.

Target: Cas9wt (SpCas9) (Streptococcus pyogenes, UniProt Q99ZW2 1-1368)
Experiment: single-molecule magnetic tweezers

Sequence of Cas9wt (SpCas9) (Q99ZW2 whole entry): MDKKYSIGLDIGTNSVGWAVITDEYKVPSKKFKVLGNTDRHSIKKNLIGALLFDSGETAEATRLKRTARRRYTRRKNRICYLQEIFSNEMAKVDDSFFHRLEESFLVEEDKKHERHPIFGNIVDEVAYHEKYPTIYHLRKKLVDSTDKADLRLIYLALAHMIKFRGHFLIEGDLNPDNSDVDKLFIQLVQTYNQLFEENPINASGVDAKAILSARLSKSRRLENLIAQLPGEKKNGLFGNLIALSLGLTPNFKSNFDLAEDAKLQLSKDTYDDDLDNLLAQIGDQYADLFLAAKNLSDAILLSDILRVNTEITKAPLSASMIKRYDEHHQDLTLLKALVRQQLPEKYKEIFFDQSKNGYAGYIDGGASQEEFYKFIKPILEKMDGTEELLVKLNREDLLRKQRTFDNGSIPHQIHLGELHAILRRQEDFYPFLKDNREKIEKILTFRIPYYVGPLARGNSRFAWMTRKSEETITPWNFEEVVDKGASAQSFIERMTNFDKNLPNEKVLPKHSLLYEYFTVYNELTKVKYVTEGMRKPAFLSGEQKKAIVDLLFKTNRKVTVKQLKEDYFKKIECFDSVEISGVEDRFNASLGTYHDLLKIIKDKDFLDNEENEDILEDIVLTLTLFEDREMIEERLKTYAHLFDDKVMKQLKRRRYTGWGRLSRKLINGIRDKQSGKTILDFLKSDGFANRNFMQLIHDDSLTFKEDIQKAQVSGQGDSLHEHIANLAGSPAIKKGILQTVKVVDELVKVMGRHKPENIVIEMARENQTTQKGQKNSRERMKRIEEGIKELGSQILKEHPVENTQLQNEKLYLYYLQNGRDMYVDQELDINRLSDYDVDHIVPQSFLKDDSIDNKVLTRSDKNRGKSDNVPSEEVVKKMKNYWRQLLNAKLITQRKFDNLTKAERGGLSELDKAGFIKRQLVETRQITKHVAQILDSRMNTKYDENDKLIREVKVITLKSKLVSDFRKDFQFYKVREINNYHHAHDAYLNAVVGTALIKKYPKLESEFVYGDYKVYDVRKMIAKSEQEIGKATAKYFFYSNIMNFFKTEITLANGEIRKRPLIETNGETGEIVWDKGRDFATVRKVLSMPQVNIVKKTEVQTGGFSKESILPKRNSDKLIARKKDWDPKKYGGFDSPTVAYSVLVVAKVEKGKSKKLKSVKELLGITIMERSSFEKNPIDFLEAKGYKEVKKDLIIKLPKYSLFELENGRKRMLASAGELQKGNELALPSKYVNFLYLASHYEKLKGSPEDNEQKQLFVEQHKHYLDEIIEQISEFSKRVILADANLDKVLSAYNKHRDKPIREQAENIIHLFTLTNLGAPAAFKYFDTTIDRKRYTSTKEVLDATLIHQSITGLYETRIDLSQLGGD

B1: sgRNA MT + 2.7 kb DNA with FM protospacer (mixed)
RNA: GAGCGAUACACAUGAGACGCGUUUUAGAGCUAGAAAUAGCAAGUUAAAAUAAGGCUAGUCCGUUAUCAACUUGAAAAAGUGGCACCGAGUCGGUGCUUUUU
binding result: binds
